The source of these data is article PMC13245411.

Targets include human HA-tagged M1AP (UniProt Q8TC57); human HA-tagged REDIC1 (UniProt Q86WS4); mouse HA-tagged M1AP (UniProt Q9Z0E1); mouse HA-tagged REDIC1 (UniProt A0A087WRU1).
What all share (test): co-IP (anti-FLAG) in HEK293T cells, band intensity quantified
Common to all, as to conditions: parent: est. 1.0; read off a plot

UniProt A0A087WRU1, sequence (A0A087WRU1 whole entry): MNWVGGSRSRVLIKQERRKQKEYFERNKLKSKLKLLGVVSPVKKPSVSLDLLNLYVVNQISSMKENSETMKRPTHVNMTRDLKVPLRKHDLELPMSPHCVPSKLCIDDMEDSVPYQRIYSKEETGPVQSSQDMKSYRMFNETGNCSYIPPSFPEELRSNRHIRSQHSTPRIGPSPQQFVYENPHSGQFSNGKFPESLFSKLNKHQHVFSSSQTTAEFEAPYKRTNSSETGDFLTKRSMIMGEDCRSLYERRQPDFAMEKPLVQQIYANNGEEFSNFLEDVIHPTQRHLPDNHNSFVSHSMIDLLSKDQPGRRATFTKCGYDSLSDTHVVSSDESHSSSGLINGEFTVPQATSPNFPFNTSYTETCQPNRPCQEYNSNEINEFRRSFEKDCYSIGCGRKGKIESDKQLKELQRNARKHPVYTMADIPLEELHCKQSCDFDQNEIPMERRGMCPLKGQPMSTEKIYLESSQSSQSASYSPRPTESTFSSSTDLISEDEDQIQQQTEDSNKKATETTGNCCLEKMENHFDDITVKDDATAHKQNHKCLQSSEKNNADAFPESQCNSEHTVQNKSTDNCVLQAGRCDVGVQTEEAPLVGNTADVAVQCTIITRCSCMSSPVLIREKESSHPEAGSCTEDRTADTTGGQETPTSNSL
UniProt Q8TC57, sequence (Q8TC57 whole entry): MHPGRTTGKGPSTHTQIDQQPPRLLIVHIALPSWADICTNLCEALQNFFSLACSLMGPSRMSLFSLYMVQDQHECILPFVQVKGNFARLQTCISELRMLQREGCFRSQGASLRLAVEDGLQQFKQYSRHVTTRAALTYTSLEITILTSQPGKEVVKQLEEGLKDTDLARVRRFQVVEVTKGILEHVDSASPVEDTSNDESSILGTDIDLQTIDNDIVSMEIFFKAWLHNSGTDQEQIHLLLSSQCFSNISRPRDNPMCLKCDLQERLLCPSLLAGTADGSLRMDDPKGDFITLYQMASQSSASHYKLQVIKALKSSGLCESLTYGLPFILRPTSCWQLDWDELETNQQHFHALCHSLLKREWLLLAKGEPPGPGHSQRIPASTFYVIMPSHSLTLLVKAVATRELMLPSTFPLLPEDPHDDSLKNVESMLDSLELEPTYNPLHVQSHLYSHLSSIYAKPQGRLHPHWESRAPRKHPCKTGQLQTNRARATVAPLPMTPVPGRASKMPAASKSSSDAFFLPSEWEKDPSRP
UniProt Q9Z0E1, sequence (Q9Z0E1 whole entry): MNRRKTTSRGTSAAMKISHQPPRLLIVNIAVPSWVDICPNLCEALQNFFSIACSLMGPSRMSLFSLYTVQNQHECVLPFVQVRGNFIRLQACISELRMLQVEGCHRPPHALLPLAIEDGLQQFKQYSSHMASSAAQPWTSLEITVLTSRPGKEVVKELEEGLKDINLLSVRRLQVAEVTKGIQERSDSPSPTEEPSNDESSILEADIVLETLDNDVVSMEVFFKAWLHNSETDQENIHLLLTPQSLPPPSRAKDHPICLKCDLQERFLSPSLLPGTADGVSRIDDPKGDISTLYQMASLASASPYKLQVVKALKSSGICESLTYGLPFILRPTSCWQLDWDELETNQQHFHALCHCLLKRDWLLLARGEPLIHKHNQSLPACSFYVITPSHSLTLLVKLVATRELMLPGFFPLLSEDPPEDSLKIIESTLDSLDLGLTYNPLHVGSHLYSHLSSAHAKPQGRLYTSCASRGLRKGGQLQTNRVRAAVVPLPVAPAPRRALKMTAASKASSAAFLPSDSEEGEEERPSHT
UniProt Q86WS4, sequence (Q86WS4 whole entry): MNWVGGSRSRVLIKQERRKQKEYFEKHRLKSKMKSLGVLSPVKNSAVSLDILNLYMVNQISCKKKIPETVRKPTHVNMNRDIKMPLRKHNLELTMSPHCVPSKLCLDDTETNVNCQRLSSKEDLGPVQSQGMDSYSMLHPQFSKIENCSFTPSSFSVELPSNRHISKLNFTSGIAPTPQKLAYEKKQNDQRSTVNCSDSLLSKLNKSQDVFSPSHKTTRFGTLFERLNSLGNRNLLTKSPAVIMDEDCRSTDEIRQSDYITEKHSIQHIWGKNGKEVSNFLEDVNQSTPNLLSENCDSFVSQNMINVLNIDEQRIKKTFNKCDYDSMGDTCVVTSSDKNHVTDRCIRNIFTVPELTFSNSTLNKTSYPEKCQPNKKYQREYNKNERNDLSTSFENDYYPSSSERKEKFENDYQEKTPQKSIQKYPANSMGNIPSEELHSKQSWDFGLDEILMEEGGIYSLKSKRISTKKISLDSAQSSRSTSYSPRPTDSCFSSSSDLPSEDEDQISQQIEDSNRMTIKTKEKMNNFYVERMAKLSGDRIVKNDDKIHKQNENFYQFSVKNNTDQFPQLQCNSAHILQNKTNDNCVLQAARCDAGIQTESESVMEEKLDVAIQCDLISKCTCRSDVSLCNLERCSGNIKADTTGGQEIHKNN

human SHOC1-XPF (WT, FLAG-tagged) Q590R: the results for the ratio to parent with human HA-tagged M1AP and with human HA-tagged REDIC1 were 0.44 and 1, respectively.

mouse SHOC1-XPF (WT, FLAG-tagged) Q646R: the ratio to parent with mouse HA-tagged M1AP is 0.5; with mouse HA-tagged REDIC1 it was 1.1.
